Measurements from PMC5771497.

How the values were obtained:
[1] = biological target: T1, PRC2 5-mer (EZH2-EED-SUZ12-RBBP4-AEBP2) (Homo sapiens, UniProt Q15910-2;O75530;Q15022;Q09028;Q6ZN18 1-751;1-441;1-739;1-425;1-517); assay: fluorescence polarization
[2] = biological target: T1, PRC2 5-mer (EZH2-EED-SUZ12-RBBP4-AEBP2); assay: competition
[3] = biological target: T1, PRC2 5-mer (EZH2-EED-SUZ12-RBBP4-AEBP2); assay: competition; remark: listed apart in the source
[4] = biological target: T1, PRC2 5-mer (EZH2-EED-SUZ12-RBBP4-AEBP2); assay: EMSA

B1: (CG)30 dsDNA (dsDNA)
DNA 1: CGCGCGCGCGCGCGCGCGCGCGCGCGCGCGCGCGCGCGCGCGCGCGCGCGCGCGCGCGCG
DNA 2: B1 DNA 1
Question: Does B1 bind [1]?
Answer: binds

B2: (GGAA)10 RNA (structured_RNA)
RNA: GGAAGGAAGGAAGGAAGGAAGGAAGGAAGGAAGGAAGGAA
Question: Does B2 bind [2]?
Answer: binds

B3: Poly(A)40 RNA (ssRNA)
RNA: AAAAAAAAAAAAAAAAAAAAAAAAAAAAAAAAAAAAAAAA
Question: Does B3 bind [3]?
Answer: no binding

B4: (mCpG)24 dsDNA (dsDNA)
DNA 1: CGCGCGCGCGCGCGCGCGCGCGCGCGCGCGCGCGCGCGCGCGCGCGCG
DNA 2: B4 DNA 1
modifications: 5-methyl-C at CpG
Question: With B4 as the binder, how does the Kd [4] read?
Answer: 11.3 ± 6.2 nM
